US20080242590A1, “New Method 706” (ASTRAZENECA AB, priority 2007, published 2008)

Experiments:
Assay in all cases: cell-based or functional assay
[1] = molecular target: amyloid β peptide 1-40 in guinea pig plasma (guinea pig) (UniProt Q60495)
[2] = molecular target: amyloid β peptide 1-42 in guinea pig plasma (guinea pig) (UniProt Q60495)
[3] = molecular target: amyloid β peptide 1-42 (human) (human)
[4] = molecular target: amyloid β peptide 1-40 (human) (human)
Chain of amyloid β peptide 1-40 (human) (human) (peptide, as listed by the source): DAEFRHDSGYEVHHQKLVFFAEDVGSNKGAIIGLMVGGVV

Chain of amyloid β peptide 1-42 (human) (human) (peptide, as listed by the source): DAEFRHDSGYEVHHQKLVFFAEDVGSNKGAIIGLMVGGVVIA
Chain of Recombinant Human Neprilysin (R&D Systems) (P08473 52-750 limits assumed): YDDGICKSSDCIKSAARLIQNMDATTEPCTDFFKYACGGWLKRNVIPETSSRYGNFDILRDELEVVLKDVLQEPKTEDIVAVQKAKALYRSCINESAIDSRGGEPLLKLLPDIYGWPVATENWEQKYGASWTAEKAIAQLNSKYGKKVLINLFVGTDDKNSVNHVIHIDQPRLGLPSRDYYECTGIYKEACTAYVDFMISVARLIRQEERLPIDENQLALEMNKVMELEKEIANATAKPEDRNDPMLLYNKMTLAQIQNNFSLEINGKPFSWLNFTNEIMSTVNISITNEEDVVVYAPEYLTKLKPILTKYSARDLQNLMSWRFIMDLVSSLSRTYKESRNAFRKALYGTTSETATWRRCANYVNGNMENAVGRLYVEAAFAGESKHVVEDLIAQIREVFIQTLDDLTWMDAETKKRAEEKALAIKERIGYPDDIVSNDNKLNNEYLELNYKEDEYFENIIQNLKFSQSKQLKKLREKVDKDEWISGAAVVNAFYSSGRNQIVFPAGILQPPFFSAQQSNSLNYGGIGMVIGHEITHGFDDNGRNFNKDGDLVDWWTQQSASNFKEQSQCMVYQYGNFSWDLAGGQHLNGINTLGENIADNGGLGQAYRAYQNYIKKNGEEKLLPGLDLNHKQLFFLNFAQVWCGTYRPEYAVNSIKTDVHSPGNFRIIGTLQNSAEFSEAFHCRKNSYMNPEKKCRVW

Row | degradation of Aβ40 in guinea pig plasma ex vivo compared to vehicle (ELISA), 5 µg/ml, 4 h at 37 °C [1] [%] | reduction of Aβ42 in guinea pig plasma ex vivo compared to vehicle (ELISA), 5 µg/ml, 4 h at 37 °C [2] [%] | % degradation of Aβ 1-42 in APPswe-tg mouse plasma at highest concentration (100 µg/ml), 1 h room temperature, ELISA [3] [%] | % degradation of Aβ 1-42 in human plasma at highest concentration (100 µg/ml), 1 h room temperature, ELISA [3] [%] | EC50 of degradation of Aβ 1-42 in APPswe-tg mouse plasma [3] [nM] | EC50 of degradation of Aβ 1-42 in human plasma [3] [nM] | % degradation of amyloid β 1-40 in APPswe-tg mouse plasma at highest concentration (100 µg/ml), 1 h room temperature, ELISA [4] [%] | % degradation of amyloid β 1-40 in human plasma at highest concentration (100 µg/ml), 1 h room temperature, ELISA [4] [%] | EC50 of degradation of Aβ 1-40 in APPswe-tg mouse plasma [4] [nM] | EC50 of degradation of Aβ 1-40 in human plasma [4] [nM] | Substance
1 | 49 | > 57 | – | – | – | – | – | – | – | – | Recombinant Human Neprilysin (R&D Systems) (from UniProt P08473 52-750) (enzyme)
2 | – | – | 53 | 19 | 820 | 180 | 77 | 71 | 340 | 400 | mouse version of the Fc-Nep (mFc-Nep) (Fc fusion)
